Reference: a protein production outcome set (Wang et al. 2014)

Experiment: label from the status in PepcDB records

With “MLNQSNELNAWDRDHFFHPSTHMGTHARGESPTRIMAGGEGVTVWDNNGRKSIDAFAGLYCVNVGYGRQKIADAIATQAKNLAYYHAYVGHGTEASITLAKMIIDRAPKGMSRVYFGLSGSDANETNIKLIWYYNNVLGRPEKKKIISRWRGYHGSGVMTGSLTGLDLFHNAFDLPRAPVLHTEAPYYFRRTDRSMSEEQFSQHCADKLEEMILAEGPETIAAFIGEPILGTGGIVPPPAGYWEKIQAVLKKYDVLLVADEVVTGFGRLGTMFGSDHYGIKPDLITIAKGLTSAYAPLSGVIVADRVWQVLVQGSDKLGSLGHGWTYSAHPICVAAGVANLELIDEMDLVTNAGETGAYFRAELAKAVGGHKNVGEVRGDGMLAAVEFVADKDDRVFFDASQKIGPQVATALAASGVIGRAMPQGDILGFAPPLCLTREQADIVVSKTADAVKSVFANL” the protein production was “not failed”.

In the case of “MLNTFMFPGQGSQAKGMGGALFDRFADLTAQADAVLGYSIRALCVDDPRDELGRTQFTQPALYVVNALTYYAKCEDSGETPDFLAGHSLGEFNALLAAGCFDFETGLKLVARRAELMSQARDGAMAAIVNASREQIERTLDEHGLVDTAIANDNTPSQLVISGPAHEIARAEALFQHDRVRYLRLNTSGAFHSKFMRPAQQAFAAHLQSFRLADPAIPVISNVSARPYENGRVSEGLAQQIASPVRWCESIRYLLALAAERGEAIEFTELGHGDVLTRLVHTIRRQTPAPAAAATSARARPTPPGEPERPAQQTAAAPRASDSASASLGAAERVAAWNRDYPVGTRVRSSLIHDDVLETRTPATVLFGHRAAVYMKGYNGYFDLAEVTPA”, the protein production is reported as “not failed”.

With “MLPDDVNQADVLADVTAAFYRYEKALTGNDVAVLDELFWHDEKTVRYGAGENLYGIEEIRAFRLARPSAGLDRALRNTVITTYGHDMAVASTEFTRTGSTKIGRQMQTWVKMPEGWRIVAAHVSLMSE” the protein production was “not failed”.

For “MLPKIIDLFSGCGGLALGFEKAGFDIVAGIELMPEACKTISYNLSWRYGKKETHICGDITEIEASVFKNSFGDEGCIVIGGPPCQAYSMAGRGKLRSLGEDRVNIKDARGYLYQDFLRFVFELEARAVVMENVPESTNFGGKNIPEIVCTELTKKGYKAYWTILNSADYGVPQVRERVFVVAIKGDEGKEIKLPNPTHRNEVDVLTQHQKRFEGYKQCQFFVEPNGTTDELKPWVTVGDAFSDLPEVFPTADSKYKLVSLNIEYPYKTEAQNEYQELMRTWYGKEGFGVSANAFRRNTRDFPIFERMQQGDNYIAATKIAEELFYEEAKLFGYEKDSEEYISLYNKMVPQYDKDKFENKWKRLDETKPSHTLVAHLAKDTYSHIHPIEPRGITVREAARLQSFPDDFFFDCSMGDAFKQIGNAVPPLLAYGVARTVLNTFEEE”, the protein production was “failed”.

For “MLPSRKTKRVFSCDFTPGRKRRRCVVVPSSVSPVPENTTGADLLDSIPDDLVISILCKLGSTSRCPADFINVLLTCKRLKGLAMNPIVLSRLSPKAIAVKAHNWSEYSHRFLKRCVDAGSLEACYTLGMIRFYCLQNRGNGASLMAKAAISSHAPALYSLAVIQFNGSGGSKNDKDLRAGVALCARAAFLGHVDALRELGHCLQDGYGVPQNVSEGRRFLVQANARELAAVLSSGIQARSTWLSLSQPPPPVVPNHGQQTCPLLSDFGCNVPAPETHPANRFLADWFAVRGGDCPGDGLRLCSHAGCGRPETRKHEFRRCSVCGVVNYCSRACQALDWKLRHKMDCAPVQRWLEEGDGGEGNVQIDGNGNGDNVLLPMS”, the protein production was “failed”.

In the case of “MLPVLETTAHSPLTIVWFVLITVLWVGFFFLEGFDFGVAMLLPFLGRDDKDRRLMVNTIGPTWDGNEVWLLTAGGATFAAFPGWYATMFSGLYLPLLLVLLGLIVRGVAFEYRSKNPSSSWRNAFDWMATIGSFLPTLVLGVGFANFVRGLAVGPHSTPDGGTAPLVTTSFWGLFTPFALIGGILFVVLFCAHGANFVALKTMGDMHDRARKTSAKLGWIATVVALVWALMFNIMYVTRDGRQVLTWIICLLVVVLLAAGSAVVAKGREGLAFLCTALGIALMIVACMFAMYGNLGYRPSGIAFDMWIASATGRTLKIMTISACVFVPIVLAYQVWSYWVFRKRLTREAIPDTAVAA”, the protein production is reported as “failed”.

With “MLQHRCPVRRILVHYIAHWSRLRSILPTFAAIVRRPFRVCKTMNQPSSKPTPAVTFRLSKAELVLVFITMLWGGTFLLVHNVMTVSGPMFFVGLRFAAAALFVGVVSARALPGLTFTELKAGMLIGVSIMLGYGLQTMGLQTISSSQSAFITALYVPFVPLLQWLVLGRRPGLMPSMGICLAFIGLMLLAGPEGGSLRFSEGELVTLISAVAIAGEIILISRYAGQVDVRRVTVVQLATASLLAFLMIVPTQERIPDFSWLLLASAVGLGAMSAVIQVAMNWAQKSVSPTRATLIYAGEPVWAGIVGRLAGERLPGVALLGGLLIVVAVVVSELKVRRPRETVETRDVQNPGERQAGL” the protein production was “failed”.

With “MLQIIVPMAGAGSRFAVAGYTDPKPLIPVHGVPMIKVVIDNLTPDCPHRFIFICQAEQVAAYGLREKLNAWAPGCGIVELGGLTGGAACTVYAARHLINYDQQVMIANSDQYVDVDINAYLHAMNECDAAGLIMTMKASDPKWSFVGFDSQGHINRVVEKEVISDEATVGIYNFRSGGQLVSAIEAMVLKDLRVNGEFYVAPAYNELIEQGAKVIHYSIGAEGHGMYGLGIPVDLNLFLSLPLSRQAASGVGNLEHHHHHH” the protein production was “failed”.

With “MLQKDPCLDDILENSEKLENNSNKKNIDSIDTIKLSDIIEKMIEINSIVRIEKIFEEKIVSQNPVVNVVVNDGSARGLLSLWSEQISLLNELNEGDAILIENAHAPKKYKDRIHLALSKSGKISKIESDLPTIDELLKKSSAQRNDFSRKSISELKEGIGAELRGLIVAIHSKEPYFPVCDKCNKKMTLKKGYAVCKCGNKVDEEDENLKWLFLCTCTLDDGSGTIRVTLNNNTNYLDLEELKKIIIDDEEILDVLNNKLLGLDILTSGFTIYDEYLKDTAFRCNNWNKIDIMEEFNKKLKGLEHHHHHH” the protein production was “not failed”.

For “MLQLDHRHSIELHFAIPVSLPGCLSGAEVVADWPLDARSSGRQTSVSEAAGAGPVDRMNKEHYPFRMFLLGPFALVDAGGRSVAPKSKKAQALLAMLALSTRGSRSRIWLRDKLWSDRSDDQAAASLRQALLDIHKSLGPARDLLIADKNTVWLDTDRLLLDTDLMIRTERSPDQVTDELLEGIDIRDPEFEDWLALERQNWYRRLDEGQVHDVFEPRQQPSRDIAKHSALLPLTGAPDTSRTGKPVDIASSGPYGRRVGGDWQWMMALQSPIVVGAGEGGQIAATRFQNLIAKAIIDGLGFGVTDLSFTLPHIEENEQQISLPICLQLRLTFDGDMVLIELVMKHLINNRIHWLGSQAINRTQFERGEFGIAAALISQAVDQLAYFQEIQATDSRLSQDGLLIDAVNAIFRLSRDDLDNAERRLEEQIQYQPRSSTFAWLSFIRTFQVGQRFNALDAHLIEEAQAYARKALELDPQNSVSLALVGHVHSFLFGEYDYAANLFEKSIRLNPALPLGWDLYAMLHCYAGQPDKAVAMARWVQELGVYSPHKYYFDTTKCIAAALAGDHAAAITAGEEALRARPNFNSLLRYLASSHAHSNDLGSARHYLQRLEAVEGGFSINDFRGSGYPLLDTGGGQILIDGLLKAGAKLR”, the protein production was “failed”.

With “MLQSKVFKYSRWDIACCLVIPFQISVYALLAYYYQSMSLLALLGMIPVLFALSLQNAGANHNHYHTPFFRIRWMNTLTRMGFSATEAPKTPYNIGHGIHHATHQSWNDKSILAVLGLKRSIAQQLISFGLFIFESLGVKYFTLLVLLKYWPIERVAVLASPEDPVLAARALKKLLEPAKLKAAKYDLAAWFLFRLVLCVVDWQFFFFYFIPVTYLIDTLRQGENYFQHWGATDPNDPKRDSVSCYSTLYNLLTFNLGYHQEHHYKPGLHWLKLPELTKELPSDRHTVPYSHYLNSPLMFPERASQLRKENVADVSP” the protein production was “failed”.

In the case of “MLQTINKTLGKIMPLLTPLSVVSGVLLADYLNGLASLVPWIFAFMTFAGSLGANFQSLKTAVAHPLPMFLALFVLHIFMPVLAWSTGHLVFSGDSLTITGLTLGVVIPTGITSMIWAAMYKGNIGLTLSIILVDTILSPFIVPFSLSILAGAHVEMDVIGMMKGLVGMIVIPSLLGMLVNQFSTPERTVRLSANCAPFSKVGLAAVVAINSSVVAPYLKNVDLKFLTIAVTVFLVAFTGYLTAWLIGRLMKRPQEEIVALIFTGGMRNISAGAVLATSFFPPQVAVPVVIGMLFQQILAALFGHLLARSELKKAHHLDKKTSLPS”, the protein production is reported as “failed”.

With “MLRKKHFSWMLVILILIAVLSFIKLPYYITKPGEATELASLIKVEGGYPEKGSLSLMTVKVGPANPFTYVWAKMHPYYEIVPDESIKEEGESDKEYMKRQLQMMKSSQENAVIAAYQKAGKKVSYSFNGIYASSVVENMPAKGKIEVGDKIISADGKNYQSAEKLIDYISSKKAGDKVTLKIEREEKEKRVTLTLKQFPDEPDRAGIGVSLYTDRNVKVEPDIDFEIENIGGPSAGLMMSLEIYNQLTKPDETKGYDIAGTGTIDVDGKVGPIGGIDQKVVAADKAGKDIFFAPNQNGASNSDYKNAVKTAKDIDSNMKIVPVDTMQDAIDYLNKLKAKQPDSQVLFLYI” the protein production was “failed”.

With “MLRLVKTRPSLRLGPSETAVIRVLDQERIDRINQDLTRAWKADVETTCVLSGILLLPCLILICLLDGPLFAKVILCTFLCLMVGGWCIAKWLNAQAQPRTDITGVKVEQLEGYFDRRWVRNGGKPYIEYSFGKHWLHIQTSACSFFSGDTQLKLNRRYRVDALYLTGHSSAYTGYYLLEETFKEIFDDSDLSAAEKIQIAEREKRINQDLEEQHKRLYRLYRNPQGELEAVAIGFNFAACFLTVLWSFCVSLYWVTGLTLAALGLILLIPDTGAGHPWFALGWLLSAGVFGACGNLWRERQVLSKGFVQVDALLSCNPDQAKVQYKRKVEEAAPGFGQ” the protein production was “failed”.

In the case of “MLRNNLGNSSDSKNEDGSVFSQTEHNIVATYLIMAGMISIISNIIVLGIFIKYKELRTPTNAIIINLAVTDIGVSSIGYPMSAASDLYGSWKFGYAGCQVYAGLNIFFGMASIGLLTVVAVDRYLTICLPDVGRRMTTNTYIGLILGAWINGLFWALMPIIGWASYAPDPTGATCTINWRKNDRSFVSYTMTVIAINFIVPLTVMFYCYYHVTLSIKHHTTSDCTESLNRDWSDQIDVTKMSVIMICMFLVAWSPYSIVCLWASFGDPKKIPPPMAIIAPLFAKSSTFYNPCIYVVANKKFRRAMLAMFKCQTHQTMPVTSILPMDVSQNPLASGRI”, the protein production is reported as “failed”.

For “MLRSCARRLRTLGALCQPPPVGRRLPGSEPQPALRSFSSEEVILKDYSVPNPSWNKDLRLLFDQFMKKCEDGSWKRLPSYKRTPTERIQDFKTHFLDPKLMKEEQVSQAQLFTRSFDDGLGFEYVMFYNDVEKRMVCLFQGVPYLEGPPGLIHGGAIATMIDATVGMCAMMAGGIVMTANLNISCKRPIPLCSVVRINSQLDKVEGKKFFVSSNVQSVDEKTLYSEATSLLIKLNPAKSLT”, the protein production was “failed”.

With “MLRSLDIRDMLIIDRLSLAFQPGLNVLTGETGAGKSILLDSLGFVLGWRGRAELVRAGADKGEVTAVFDLPPGHAARAVLDEAGIEAEDELILRRVNFADGRKTAWVNDRRVSGEVLRGLSDRLVELHGQHDDRGLLNPRGHRQMLDTFAGLDLSACRRAWTALGTARRTLLAAEEALAAVRAEEDFLRHAVAELDKLDPQPGEEALLDTRRREMQGAEKIRDDIARAHRALSAEGAETLLVD” the protein production was “failed”.

For “MLRTEHYAFLPCISRALEERDSLGIRRELRARQQRLSMQQSRSKLGRVCVTGANSPLGQELVGALTRTPDPSLRPDAIGVIGARDPIESHSAGAGLHFPGPGVDFLECAATDLEHYNPRTLFSINDDDLGLRRRSIFRENQVVIDLLRAQGETNEPRSKTRLVLVTLLGCGDSEDAIPSQAFDVLRPLLLELSRVEQYVRESGLPYTIVRPGALEHGDADSRAIVSESKVGFGTIHRSTLAHLLLNVAASEKAVNKTLMALDMNRLLVAAPYVRPFEVWESPPFEVFDL”, the protein production was “not failed”.
